This note sets out measurements from article PMC2592702 (PLoS ONE, 2008).

Assay [1] has as its target T1, POM2 epitope-mimicking peptide of the competition BIAcore experiment (Mus musculus).
T1 chain: QPHGGGW
The assay can be described thus: SPR; […] (100–[…]), 1 h at room temperature; […]; HBS-EP. Conditions: both partners purified. On the technique in general: In SPR one partner is held on a chip, and binding of the other changes the refractive index at the surface.

The target of assay [2] is T2, N-terminally truncated recombinant mouse PrP, residues 121–231 (rmPrP_(121-231)) (Mus musculus, UniProt P04925). The assay can be described thus: ELISA.
For assay [3], the target named is T2, N-terminally truncated recombinant …. Put plainly: SPR; […]; antibody 420 pM–110 nM in HBS-EP at 20 µl/min, 20 min dissociation, […]. To be noted: both partners purified.

Where a chain is given by its changes, count along the chain named.

T2 sequence (P04925 whole entry, looked up, the tested form may be a part): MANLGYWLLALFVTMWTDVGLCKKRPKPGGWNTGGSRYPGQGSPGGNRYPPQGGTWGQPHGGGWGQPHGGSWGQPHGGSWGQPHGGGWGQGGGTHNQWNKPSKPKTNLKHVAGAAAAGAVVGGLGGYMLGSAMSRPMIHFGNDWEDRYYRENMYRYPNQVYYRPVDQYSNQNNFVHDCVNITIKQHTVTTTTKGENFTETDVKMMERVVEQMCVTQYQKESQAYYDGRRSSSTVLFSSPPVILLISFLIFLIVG

B1: POM2 scFv, purified and refolded (scFv, V domains shown)
VH: EVKLQESGGEVVRPGTSVKVSCKASGYAFTNYLIEWVKQRPGQGLEWIGVINPGSGDTNYNEKFKGKATLTADKSSSTAYMQLNSLTSDDSAVYFCARSGVAAPYYYAMDYWGQGTSVTVSS
VL: DIVMTQSHKFMSTSVGDRVSITCKASQDVGTALAWYQQKPGQSPKLLIYWASTRHTGVPDRFTGSGSGTDFTLTISNVQSEDLSDYFCQQYSSYPTFGGGTKLEIK
Turning to B1, the Kd (as a rule, the concentration at which binding is half-saturated) in assay [1] was 20 nM.

B2: POM11 monoclonal antibody (antibody, V domains shown)
VH: DVMLVESGPELEKPGASVRISCKASGYSFTGYNMDWVKQNNGKSLEWIGSIDPYYGGTSYNQSFKDKATLTVDKSSGTAYMQLKSLTSDDSAVYYCARGGVGPYYYALDYWGQGTSVTVSS
VL: B1 VL with M4L, T31S, L33V, A51S, S84A, Q89H, S92N, Y94S, G99R, I105L
For the molecule B2, the binding result in assay [2] is “no binding”.

B3: POM19 monoclonal antibody (antibody, V domains shown)
VH: EVKLMESGAELMKPGGSVKISCKATGYTFYSYWIEWIKRRPGHGLEWIGEILPGTGDTKYSEKFKGRATFTADPSSNTAYMQLSSLTSEDSAVYYCTRLIYYRYDDYALDYWGQGTSVTVSS
VL: DIVMTQSPAVMSASPGEKVTMTCSASSSISYMHWYQQKPGTSPKRWIFDTSKLASGVPARFSGSGSGTSYSPTISSMEAEDAATYFCHQRIIYPTFGGGTKLEMK
As to B3, the Kd in assay [3] was 0.87 nM.
